The text below walks through data of patent US20240350596.

The data set has as its system ghrelin (acylated; [3H]-ghrelin labeled on the octanoic acid moiety of the acylated Ser3).

Consider “BChE mutant A199S/F227A/P285Q/S287G/A328W/Y332G”, for which the Relative catalytic efficiency for ghrelin (Relative to CocH3) (fold relative to CocH3) was determined as 3. Then “BChE mutant A199S/F227A/P285S/S287G/A328W/Y332G”, with 2; and BChE mutant A199S/S287G/A328W/Y332G, with 2; and BChE mutant F398I, with 2. To BChE mutant T284S/P285I/F398I belongs 3. As for BChE mutant T284S/P285I/V288I, the Relative catalytic efficiency for ghrelin (Relative to CocH3) (fold relative to CocH3) worked out at 3. To BChE mutant T284S/P285I/V288I/F398I belongs 3; to “BChE-M02 (A199S/F227A/P285A/S287G/A328W/Y332G mutant of human BChE)”, 3. Then “CocH3 (A199S/F227A/S287G/A328W/Y332G mutant of human BChE)”, with 1. To Wild-type human BChE belongs 1.5.
